According to publication PMC5986207:

Target: human HER2 extracellular domain, soluble, His-tagged (human)
Assay: AUC; multisignal sedimentation velocity (MSSV), 4:1 molar loading of HER2 to antibody (5.8:1.4 μM), PBS, 20 °C, 42,000 rpm, UV 280 and 250 nm and interference, SEDPHAT

stoichiometry N (HER2 per MEDI4276 (2:1)): 2
stoichiometry N (HER2 per MEDI4276 (5:3)): 1.67
Substance: MEDI4276, anti-HER2 biparatopic, monospecific, tetravalent antibody (trastuzumab scFv on the N terminus of the 39S heavy chain) (bispecific antibody)
